Where “and” joins values, the source holds several entries; their conditions need not be identical. Identical values can stand only once.
Molecular target: mucin (purified mucins)
Test: AFM force spectroscopy

For “SRRP_(53608)-BR, binding region of the serine-rich repeat protein from Lactobacillus reuteri ATCC 53608 (domain or fragment)”, the modal adhesion force was 105 pN and the modal adhesion force (bimodal) was 72 pN and 120 pN.

From PMC5866549
